In patent publication US20230149522A1, “POLYPEPTIDE FOR THE PROPHYLAXIS AND TREATMENT OF VIRAL INFECTIONS” (priority 2020, published 2023):
Read-outs that look alike come from different tables or passages of the source.

Experiments:
VSV(Luc-eGFP)-CoV-2 [1] = tested on: VSV(Luc-eGFP)-CoV-2
LV(Luc)-CoV-2 [2] = tested on: LV(Luc)-CoV-2
LV(Luc)-G = assay type: cell-based, Vesicular Stomatitis Virus
VSV(Luc-eGFP)-CoV-2 [3] = experiment: microbe, parasite or virus in culture; conditions: Vesicular stomatitis virus, Caco-2, read-out: IC50 VSV(Luc-eGFP)-CoV-2
LV(Luc)-CoV-2 [4] = experiment: microbe, parasite or virus in culture; conditions: Severe acute respiratory syndrome coronavirus 2, Caco-2, read-out: IC50 LV(Luc)-CoV-2
[5] = tested on: Caco2 (colorectal carcinoma cells)
[6] = tested on: Caco2 (colorectal carcinoma cells); remark: listed apart in the source
[7] = read-out: IC50 VSV(Luc-eGFP)-CoV-2

Q: Which results are given for `CC[C@H](C)[C@H](NC(=O)[C@H](C)NC(=O)[C@H](CCC(=O)O)NC(=O)[C@H](CCC(=O)O)NC(=O)[C@H](CC(C)C)NC(=O)[C@H](CCCCN)NC(=O)[C@H](CCCCN)NC(=O)[C@H](CCSC)NC(=O)[C@H](CCC(=O)O)NC(=O)[C@H](Cc1ccc(O)cc1)NC(=O)[C@H](CCC(=O)O)NC(=O)[C@H](CC(C)C)NC(=O)[C@H](CC(=O)O)NC(=O)[C@H](CC(C)C)NC(=O)[C@H](Cc1ccccc1)NC(=O)[C@@H](NC(=O)[C@@H](NC(=O)[C@H](CC(N)=O)NC(=O)[C@@H](NC(=O)[C@H](CCC(N)=O)NC(=O)[C@H](CC(=O)O)NC(=O)[C@H](CC(C)C)NC(=O)[C@@H](N)CO)[C@@H](C)CC)C(C)C)[C@@H](C)O)C(=O)N[C@@H](CCCCN)C(=O)N[C@@H](CCCCN)C(=O)N[C@@H](CC(C)C)C(=O)N[C@@H](CCC(=O)O)C(=O)N[C@@H](CCC(=O)O)C(=O)N[C@@H](CO)C(=O)N[C@@H](Cc1ccc(O)cc1)C(=O)N[C@H](C(=O)N[C@@H](CC(=O)O)C(=O)N[C@@H](CC(C)C)C(=O)N[C@@H](CCCCN)C(=O)N[C@@H](CCC(=O)O)C(=O)N[C@@H](CC(C)C)C(=O)O)[C@@H](C)CC` [EK1, reference compound]?
A: IC50 (VSV(Luc-eGFP)-CoV-2 [1]; 2 h): 281 nM; IC50 (VSV(Luc-eGFP)-G; 2 h): > 20000 nM; IC50 (LV(Luc)-CoV-2 [2]; 1 h): 82.4 nM; IC50 (LV(Luc)-MLV; 1 h): > 20000 nM

Q: With `CN(C)C(=O)COC(=O)Cc1ccc(OC(=O)c2ccc(NC(=N)N)cc2)cc1` [CM, camostat mesilate, reference compound] as the molecule, how does the “IC50 LV(Luc)-G” value (LV(Luc)-G) read?
A: Its value is “unstable”.

Q: And the “IC50 LV(Luc)-MLV” value (LV(Luc)-MLV)?
A: The value was “unstable”.

Q: And the IC50 (VSV(Luc-eGFP)-CoV-2 [3])?
A: Its IC50 is 87.5 nM.

Q: What about the IC50 (LV(Luc)-CoV-2 [4]) of the same molecule?
A: Its IC50 is 242 nM.

B1: LD15 (protein)
chain: EEDSPDSFSSLDSEMCKDYRVLPRIGYLCPKDLKPVCGDDGQTYNNPCMLCHENLIRQTNTHIRSTGKCEESSTPGTTAASMPPSDE
modifications: human
Q: How did the IC50 (LV(Luc)-G) turn out when B1 was run?
A: The IC50 was 545 nM.

Q: What about the IC50 (VSV(Luc-eGFP)-CoV-2 [1]; [7]) of the same molecule?
A: Its IC50 is 1850 nM.

Q: And the IC50 (VSV(Luc-eGFP)-G; read-out: IC50 VSV(Luc-eGFP)-G)?
A: The IC50 was 1020 nM.

Q: What about the IC50 (LV(Luc)-CoV-2 [2]; read-out: IC50 LV(Luc)-CoV-2) of the same molecule?
A: The IC50 was 956 nM.

Q: What about the IC50 (LV(Luc)-MLV; read-out: IC50 LV(Luc)-MLV) of the same molecule?
A: The IC50 was 1270 nM.

Q: What about the “toxicity at the concentrations tested” value [5] of the same molecule?
A: Its value is “toxic at the (two) maximum concentrations tested”.

B2: LD2/3 (protein)
chain: ARHLARAPKATAPTELNCDDFKKGERDGDFICPDYYEAVCGTDGKTYDNRCALCAENAKTGSQIGVKSEGECKSSNPEQDVCSAFRPFVRDGRLGCTRENDPVLGPDGKTHGNKCAMCAELFLKEAENAKREGETRIRRN
modifications: human
Q: Which IC50 (LV(Luc)-G) does the source give for B2 here?
A: Its IC50 is 128 nM.

Q: And the IC50 (VSV(Luc-eGFP)-CoV-2 [1]; [7])?
A: Its IC50 is 411 nM.

Q: What about the IC50 (VSV(Luc-eGFP)-G; read-out: IC50 VSV(Luc-eGFP)-G) of the same molecule?
A: The IC50 was 257 nM.

Q: And the IC50 (LV(Luc)-CoV-2 [2]; read-out: IC50 LV(Luc)-CoV-2)?
A: Its IC50 is 181 nM.

Q: What about the IC50 (LV(Luc)-MLV; read-out: IC50 LV(Luc)-MLV) of the same molecule?
A: Its IC50 is 343 nM.

Q: And the “toxicity at the concentrations tested” value [5]?
A: Its value is “toxic at the (two) maximum concentrations tested”.

B3: LD6 (protein)
chain: ESGKATSYAELCNEYRKLVRNGKLACTRENDPIQGPDGKVHGNTCSMCEVFFQAEEEEKKKKEGESRNKR
modifications: human
Q: Which results are given for B3?
A: IC50 (LV(Luc)-G): 2150 nM; IC50 (VSV(Luc-eGFP)-CoV-2 [1]; [7]): 4090 nM; IC50 (VSV(Luc-eGFP)-G; read-out: IC50 VSV(Luc-eGFP)-G): 1610 nM; IC50 (LV(Luc)-CoV-2 [2]; read-out: IC50 LV(Luc)-CoV-2): 1030 nM; IC50 LV(Luc)-MLV (LV(Luc)-MLV): unstable; toxicity at the concentrations tested [6]: toxic at the (two) maximum concentrations tested; toxicity at the concentrations tested [5]: toxic at the (two) maximum concentrations tested
